# Assay results: publication PMC4969796 (The Journal of General Physiology, 2016)
# B1: L24C/R117C KcsA (before chymotrypsin) (natural protein)
# chain: MPPMLSGLLARLVKLLLGRHGSACHWRAAGAATVLLVIVLLAGSYLAVLAERGAPGAQLITYPRALWWSVETATTVGYGDLYPVTLWGRLVAVVVMVAGITSFGLVTAALATWFVGCEQERRGHFVRHSEKAAEEAYTRTTRALHERFDRLERMLDDNRR
# Target: the molecule itself
# Test: SDS-PAGE
protein,measurement,value
B1,stoichiometry N,4
